Results reported in patent publication CN111434681A.
Values joined by “and” are separate entries in the source; they are usually repeats but may differ in a detail not shown here. Equal entries are not always repeated.

Assays:
[1] = target: H7N9病毒的HA蛋白(购自ACROBiosystems) (H7N9 influenza virus)
[2] = target: H7N9病毒 A/Anhui/1/2013 (血凝素HA on virus) (influenza A virus A/Anhui/1/2013 (H7N9)); assay: cell-based or functional assay
[3] = target: H7N9病毒的HA蛋白(购自ACROBiosystems) (H7N9 influenza virus); remark: listed apart in the source

B1: 抗H7N9全人源单克隆抗体6J15 (antibody, V domains shown)
VH: QVQLVESGAEVKKPGASVKVSCKASGYNIFTSYDINWVRQATGQGLEWMGWMNPDSGDTGFAQKFQGRVTMTRNTSITTAYMELSSLTSEDTAVYYCATGNADCSGSCYNWFDPWGQGTLVTVSS
VL: SSELTQDPAVSVALGQTVRITCQGDRLRSTYYASWYQQKPGQAPVLVIYGKNNRPSGIPDRFSGSSSGNTASLTITGAQAEDEADYYCNSRDTSGYHLVFGGGTKLTVLV
B1 was tested, and the Kd [1] was 2.06 nM, the 微量中和-ELISA实验 (MDCK cells, 100TCID50 virus), IC50 [2] was 0.35 µg/mL and the 450nm (OD) [3] was 2.25 OD 450nm and 1.85 OD 450nm and 1.78 OD 450nm.
